Where a chain is given by its changes, count along the chain named. Names and notes keep the numbering of the source.
T1: extracellular segment of human PRLR protein with avi-(his)6 tag (hPRLR-ECD-avi-his) (human, UniProt P16471 25-234)
T1 construct: The assays say only 'monomeric human PRLR extracellular domain / ECD'; also called human PRLR extracellular domain; monomeric PRLR ECD
T1 sequence: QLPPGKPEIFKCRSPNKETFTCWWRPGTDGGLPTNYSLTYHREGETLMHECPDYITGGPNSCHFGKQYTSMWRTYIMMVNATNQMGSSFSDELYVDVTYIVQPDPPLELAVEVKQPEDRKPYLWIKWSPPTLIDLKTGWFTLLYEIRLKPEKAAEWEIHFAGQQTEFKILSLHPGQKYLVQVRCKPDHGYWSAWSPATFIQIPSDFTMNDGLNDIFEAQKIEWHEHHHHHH

B1: P-PR-C08H (antibody, V domains shown)
VH: QVQLQQPGSELVRPGASVKLSCKASGFTFTTYWVHWVKQRPGQGLEWIGNISPGSGSTNYDEKFKSKASLTVDTFSNTAYMQLSSLTSEDSAVYYCIRHSGNYFNAMDYWGQGTTVTVSS
VL: DIVMTQAAPSVPVTPGESVSISCRSSKSLLHSNGNTYLYWFLQRPGQSPQLLIYRMSNLASGVPDRFSGSGSGTAFTLRISRVEAEDVGVYYCMQHLEYPLTFGAGTKLELK
notes: also called Antibody No. 6
B2: P-PR-C07H (antibody, V domains shown)
VH: EVQLQQSGAELVRPGTSVQISCKASGYTFTNNWLAWIKQRPGHGLEWIGDIYPGGVYTNYNEKFKGKATLTADTSSSTAYMQLSSLTSEDSAVYFCYYGDFWSAYWGQGTLVTVSA
VL: B1 VL
notes: also called Antibody No. 5
B3: P-PR-C02H (antibody, V domains shown)
VH: B1 VH with K19R, T115S
VL: B1 VL with A8T, T14A, S32T, N35Y
notes: also called Antibody No. 1
B4: P-PR-C06H (antibody, V domains shown)
VH: B1 VH with T115S
VL: B1 VL with P12F, R55Q, L59R, F67L, L101F, A105G, L111I
notes: also called Antibody No. 4
B5: P-PR-C05H (antibody, V domains shown)
VH: B1 VH with Y32F, G56T, D61N, S66N, T115S
VL: B1 VL with V90I
notes: also called Antibody No. 3
B6: P-PR-C12H (antibody, V domains shown)
VH: B1 VH with T30A, G56V, V116L
VL: B1 VL with P12L, L52V, L101F
notes: also called Antibody No. 7
B7: P-PR-D06H (antibody, V domains shown)
VH: B1 VH with Y32F, G56T, D61N, S66N, V116L
VL: B1 VL with S20T, N35K, R55W, L101F, A105V
notes: also called Antibody No. 16; P-PR-D06W
B8: P-PR-D01H (antibody, V domains shown)
VH: B1 VH with S55G, S84G, V116L
VL: B1 VL
notes: also called Antibody No. 8
B9: P-PR-B09W (antibody, V domains shown)
VH: B1 VH with Y32F, S55G, G56T, T115S
VL: B1 VL
notes: also called Antibody No. 10
B10: P-PR-D04H (antibody, V domains shown)
VH: QVQLQQPGSELVRPGASVKLSCKASGYTFTSYWMHWVKQRPGQGLEWIGNIYPGSGSTNYDEKFKSKATLTVDTSSSTAYMQLSSLTSEDSAVYYCTRGNYRYYFDYWGQGTTLTVSS
VL: not shown
notes: also called Antibody No. 9
B11: HP-PR01C02 (antibody, V domains shown)
VH: DVHLVESGPGLVKPSQSLSLTCTVTGYSITSDYAWNWIRQFPGNKLEWMGYISYSGSTGYSPSLKSRVSITRDTSKNQFFLQLNSVTTEDTATYFCARNNWAFDFWGQGTTLTVSS
VL: DIVLTQSPAIMSASPGEKVTMTCSASSSVNYMHWYQQKSGTSPKRWIYDTSKLASGVPARFSGSGSGTSYSLTISSMEAEDAATYYCQQWSSNPLTFGAGTKLELK
notes: also called Antibody No. 22
B12: P-PR-C04W (antibody, V domains shown)
VH: B1 VH
VL: B1 VL
notes: also called Antibody No. 15
B13: P-PR-H04W (antibody, V domains shown)
VH: B1 VH with T115S
VL: B1 VL with L101F, A105S, L111I
notes: also called Antibody No. 12
B14: P-PR-G02W (antibody, V domains shown)
VH: B1 VH with V116L
VL: B1 VL
notes: also called Antibody No. 11
B15: P-PR-H07W (antibody, V domains shown)
VH: B1 VH with T30A, G56V, V116L
VL: B1 VL with L101F, A105G, L111I
notes: also called Antibody No. 13
B16: P-PR-C04H (antibody, V domains shown)
VH: B1 VH with S55G
VL: B1 VL with L101F, A105S, L111I
notes: also called Antibody No. 2
B17: P-PR-H11W (antibody, V domains shown)
VH: B1 VH with Y32F, G56T, D61N, S66N, T115S
VL: B1 VL with L101F, A105G, L111I
notes: also called Antibody No. 14
B18: H-PR-B03 (antibody, V domains shown)
VH: QVQLKESGPGLVAPSQSLSITCTVSGFSLTGFGVNWFRQPPGRGLEWLGMIWGDGSTDYNSALKSRLSISKDNSKSQVFLKMNSLQTDDTARYYCARVLYYYGGNSFAYWGQGTLVTVSA
VL: DVLMTQTPLSLPVSLGDQASISCRSSQSIVHSNGNTYLEWYLQKPGQSPKLLIYKVSSRFSGVPDRFSGSGSGTDFTLKISRVEAEDLGVYYCFQGSHVPYTFGGGTKLEIK
notes: also called Antibody No. 17
B19: HP-PR02E11 (antibody, V domains shown)
VH: QVQLQQSGPGLVAPSQSLSITCTVSGFSLTSYGVNWVRQPPGKGLEWLGIIGAGGSTNYNSALMSRLSISKDNSKSQVFLKMNSLQTDDTAMYYCARSLYYYGSSSFAYWGQGTLVTVSA
VL: B18 VL with V2I, L3V, S58N, Y101W, I111L
notes: also called Antibody No. 19
B20: H-PR-B06 (antibody, V domains shown)
VH: DVKLVESGGGLVKPGGSLKLACAASGFTFSSYTMSWVRQTPEKRLEWVATISSGGSYTYYPDSVKGRFTISRDNAKNTLYLQLSSLKSEDTAMYYCTRDRYYSTTPDWYFDVWGAGTTVTVSS
VL: DIVLTQSPATLSVTPGDSVSLSCRATQIIFNNLHWYQQKSHESPRLLITYTSQSISGIPSRFSGSGSGTDFTLTINSVETEDFGMYFCQQSNTWPRTFGGGTKLEIK
notes: also called Antibody No. 18
B21: HP-PR01D12 (antibody, V domains shown)
VH: EVMLVESGGGLVQPGGSRKLSCAASGFTFSSFGMNWVRQAPEKGLEWVAYISSGSSIIYYADTVKGRFTISRDNPKNTLFLQMTSLRSEDTAMYYCTRFYGYIPFDYWGQGTTLTVSS
VL: DIVMTQSPAIMSASPGEKVTMTCSASSSLIYMHWYQQKSSTSPKLWIYDTSKLASGVPGRFSGSGSGNSYSLTTSSMEAEDVATYYCFQGSGYPLTFGGGTKLEIK
notes: also called Antibody No. 20

biological target: T1, extracellular segment of human PRLR …; experiment: BLI (Octet), antibody on Protein A sensor, monomeric PRLR ECD in solution, 1:1 fit

Row | Kd [nM] | koff [s⁻¹] | kon [M⁻¹ s⁻¹] | Binder
1 | 0.00177 | 2.44e-07 | 138000 | B1
2 | 3.64 | 0.000386 | 106000 | B2
3 | 0.0016 | 2.44e-07 | 153000 | B3
4 | 2.71 | 0.000663 | 244000 | B4
5 | < 0.001 | 1.3e-07 | 209000 | B5
6 | 2.7 | 0.00033 | 122000 | B6
7 | 3.38 | 0.000389 | 115000 | B7
8 | 0.00105 | 2.44e-07 | 232000 | B8
9 | 1.53 | 0.000287 | 187000 | B9

biological target: T2, recombinant mesothelin protein with the same tag; experiment: ELISA, coated antigen 1 ug/mL, antibody 10 ug/mL
T2 construct: Control antigen of the species-specific ELISA; also called Control protein

Row | absorbance at 450nm | Binder
10 | 0.065 | B10
11 | 0.072 | B11
12 | 0.065 | B1
13 | 0.095 | B12
14 | 0.064 | B13
15 | 0.062 | B2
16 | 0.07 | B14
17 | 0.069 | B15
18 | 0.098 | B3
19 | 0.084 | B4
20 | 0.116 | B5
21 | 0.09 | B16
22 | 0.091 | B6
23 | 0.137 | B7
24 | 0.068 | B8
25 | 0.054 | B17
26 | 0.102 | B9
27 | 0.067 | B18
28 | 0.111 | B19
29 | 0.054 | B20
30 | 0.09 | B21

biological target: T1, extracellular segment of human PRLR …; experiment: ELISA, coated antigen 1 ug/mL, antibody 10 ug/mL

Row | absorbance at 450nm | Binder
31 | 2.2 | B1
32 | 2.29 | B2
33 | 2.45 | B15
34 | 2.14 | B3
35 | 2.1 | B4
36 | 2.14 | B5
37 | 2.15 | B16
38 | 2.24 | B6
39 | 2.48 | B7
40 | 2.02 | B8
41 | 2.32 | B17
42 | 2.32 | B9

— EP4703383A1 (Shenzhen Genuine Biomedical Technology Co., Ltd, dated 2026)
